Here are results for 1 molecule from patent US9803013B2, “Biological materials and uses thereof” (BioInvent International AB, priority 2005, dated 2017).

Assay [1] has as its system OPM-2. Nature of the assay: SCID/xenograft MM model, subcutaneous. The class given is in vivo, mouse. As to conditions: ICAM-1-negative OPM-2, 2 mg/kg twice weekly. The procedure:
Since high expression of the BI-505 epitope in human MM was found, BI-505 was screened for in vivo anti-myeloma activity using SCID/xenograft models comprising four well-characterized MM cell-lines. […] Twice weekly dosing with 2 mg/kg of BI-505 starting one day after tumor cell injection reduced myeloma tumor growth in mice xenografted with ICAM-1-expressing cell lines EJM, RPMI-8226, and NCI-H929 by 98%, 96%, and 99%, respectively (FIGS. 17A and B).
All studies were conducted in accordance with guidelines of the Lund University Hospital, Sweden or University of Utah, Salt Lake City, USA following approval from the local ethical committee for animal care and use. BI-505 efficacy and potency was examined in subcutaneous and disseminated, prophylactic and therapeutic, experimental MM models comprising myeloma cell lines RPMI-8226, U266, EJM and OPM-2. The in vivo efficacy of BI-505 was compared to clinically approved drugs dexamethasone, melphalan, bortezomib and revlimid used at clinically relevant doses in therapeutic disseminated models comprising RPMI-8226 or primary patient myeloma cells, the latter following injection of patient cells in implanted of human fetal bone in SCID mice. For subcutaneous grafting, 1-5×10^6 tumor cells (RPMI-8226, NCI-H929, EJM, OPM-2, ARH-77, or Daudi) were subcutaneously injected at a volume of 100 μl into the left flank of anesthetized mice as described in the Supplemental Information. […] Treatment with saline, isotype control IgG, bortezomib, lenalidomide, dexamethasone, or BI-505 started on day 5 (RPMI-8226). Treatment with melphalan started on day 10. BI-505 or isotype IgG mAb was administered i.v. at 2 mg/kg/inj twice weekly for 8 weeks; bortezomib at 1 mg/kg/inj once weekly for 8 weeks; lenalidomide orally at 2 mg/kg/inj for 2 cycles consisting of 5 days of treatment and 2 days of wash out; melphalan i.v. at 3 mg/kg/inj once weekly for 8 weeks; and dexamethasone at 6 mg/kg/inj three times weekly for 2 weeks. […] The role of macrophages and NK cells for BI-505 in vivo antitumor activity was assessed using anti-asialo antibody treatment, clodronate liposome treatment or NK-cell deficient mice. […]
Treatment with antibodies by intraperitoneal injection started either 1 day after cell inoculation (prophylactic model) or when tumors reached approximately 100 mm^3 (established model). […] Macrophage and NK cell depletion was assessed upon termination of tumor bearing mice exposed to effector cell depleting agents (see above), spleens were removed and splenocytes isolated by mincing through a cell strainer (70 μm nylon mesh, BD Falcon 352350), erythrocytes were removed by lysis according to manufacturer (BD Pharm Lyse 555899, BD Biosciences).

In assay [2] the test system is U266 myeloma cells. In words: NK-cell deficient NOD/Shi-scid/IL-2Rγ−/− mouse model. The class given is in vivo. To be noted: U266 grafted to NOD/Shi-scid/IL-2Rγ−/− mice. The procedure:
(FIG. 20F) Animal survival following BI-505 or control antibody treatment in a disseminated NK-cell deficient NOD/Shi-scid/IL-2Rγ^−/− mouse model comprising i.v. grafted U266 myeloma cells. ***p<0.001.
Six-eight weeks-old female NOD/Shi-scid IL-2Rγ^−/− mice were obtained from Taconic, Denmark. Five million (5×10^6) RPMI-8226 or U266 tumor cells in 200 μL of RPMI 1640 were intravenously injected into the caudal vein (day 0). The tumor cell injection was performed 2 hr after whole body irradiation of mice (1.5 Gy, Cesium 137, IBL 637). At day 4, mice were randomized into 6 groups and treatment was initiated according to the schedule below.

B1: B11: fully human IgG1 antibody specific for ICAM-1; VH and VL sequences of FIG. 10 (SEQ ID NOs. 6 and 8) (antibody, listed as Homo sapiens, V domains shown)
VH: EVQLLESGGGLVQPGGSLRLSCAASGFTFSNAWMSWVRQAPGKGLEWVAFIWYDGSNKYYADSVKGRFTISRDNSKNTLYLQMNSLRAEDTAVYYCARYSGWYFDYWGQGTLVTVSS
VL: QSVLTQPPSASGTPGQRVTISCTGSSSNIGAGYDVHWYQQLPGTAPKLLIYDNNNRPSGVPDRFSGSKSGTSASLAISGLRSEDEADYYCQSYDSSLSAWLFGGGTKLTVLG
Consider B1, for which the “tumor growth” value in assay [1] was “did not affect tumor growth”. Moreover, the “antitumor activity” value in assay [2] is given as “significant antitumor activity”.
